Assay results: the supplement of paper PMC10065799, “High-throughput profiling of sequence recognition by tyrosine kinases and SH2 domains using bacterial peptide display” (eLife, 2023)

target: Hck (UniProt P08631); assay: phosphorylation enrichment, bacterial display (enrichment ratio); higher = better substrate or ligand; peptides without Tyr show the background
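Further: 11-residue human phosphosite peptides and single-mutation variants displayed on the E. coli surface, counted by deep sequencing, each peptide's frequency after selection divided by its frequency in the unselected input library; frequency after pTyr selection over input frequency; kinase dosed for 20-30% of maximal phosphorylation in three min.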

Chain of Hck (P08631 whole entry, looked up): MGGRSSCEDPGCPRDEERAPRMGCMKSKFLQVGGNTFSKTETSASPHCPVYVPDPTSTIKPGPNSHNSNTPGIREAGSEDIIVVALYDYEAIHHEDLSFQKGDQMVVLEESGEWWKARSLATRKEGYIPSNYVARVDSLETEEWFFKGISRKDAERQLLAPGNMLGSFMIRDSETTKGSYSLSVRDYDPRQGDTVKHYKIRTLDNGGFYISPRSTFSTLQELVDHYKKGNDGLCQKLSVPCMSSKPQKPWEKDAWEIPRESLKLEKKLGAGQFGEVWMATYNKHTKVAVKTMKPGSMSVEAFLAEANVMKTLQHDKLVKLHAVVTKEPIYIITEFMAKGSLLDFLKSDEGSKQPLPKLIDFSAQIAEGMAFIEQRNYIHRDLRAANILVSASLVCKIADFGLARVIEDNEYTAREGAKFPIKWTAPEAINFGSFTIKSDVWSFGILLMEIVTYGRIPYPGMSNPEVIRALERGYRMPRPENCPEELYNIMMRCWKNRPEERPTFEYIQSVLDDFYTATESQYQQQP

Sequence | phosphorylation enrichment
GLSDLYVKIHL [SYT2_Y309_P308L] | 0.613
EQSGSYIWVPA [DLG1_Y895] | 0.487
PIYEGYALPHA [ACTA1_Y171] | 17.3
LTVVIYVLIGR [EPHA3_Y561] | 0.839
NFDRIYIFHLR [MYOF_Y1137_V1136I_YF] | 0.507
SQQTFCRVSNM [ABCD1_Y181_Y181C_YF] | 0.5
ERCAQYKKDGA [ALDOA_Y138] | 0.396
FEPWVYSLSYE [PRKDC_Y647_F649L] | 4.72
DPTNTYARPAE [SGMS2_Y24] | 0.506
KDAGDYKCKAK [LRIT3_Y326] | 0.55
EKAEVYRSENE [RIOK2_Y348_G349R] | 0.499
EGTGHYLCNAC [GATA5_Y208_D203E] | 0.352
DSILVYQRKEQ [USH2A_Y1909_G1911R] | 0.55
LIHTKCPQLLP [AHCY_Y143_Y143C] | 0.509
LNEAVYTKMMT [G6PD_Y401_P396L] | 6.11
KKARAYRPGIE [FLNA_Y287_G288R] | 0.323
KRISCYEARYQ [PFKFB3_Y194_S197R] | 0.388

Sequence | phosphorylation enrichment
ADARMYGVLPW [PLP1_Y207] | 9.33
RMSQRYGDVLQ [CYP1A2_Y72] | 0.336
LIFTNYEVGKD [GSTP1_Y112_A114V_YF] | 1.1
RQSTLYSFFPK [MSH6_Y8] | 14.6
LADKPYTFEDF [FXN_Y118_YF] | 1.26
NGRQCYSCRGN [PLAUR_Y217_K220R] | 0.35
HEEKVYLSRGD [CRACR2A_Y141] | 0.885
PPTFRYERGSR [INPPL1_Y663_YF] | 0.622
TDTQLYGRFGS [ITGA2B_Y384_G380D] | 9.16
YRNKPYISWPS [CDC42BPB_Y1638_S1633Y] | 0.606
LERYIYNREEF [HLA-DPB1_Y59] | 1.56
LFNQDYPIHSV [GATM_Y227_YF] | 1.07
RAADYYSQQMA [GBP6_Y334] | 0.456
QRIFQYIQSRF [DYRK1B_Y273_YF] | 0.572
SVTCTYSPTLN [TP53_Y126_A129T] | 0.625
EWQQIYTYDSG [JUP_Y20_T19I] | 6.09

target: FGFR3 (UniProt P22607); assay: as above
Sequence (P22607 whole entry, looked up): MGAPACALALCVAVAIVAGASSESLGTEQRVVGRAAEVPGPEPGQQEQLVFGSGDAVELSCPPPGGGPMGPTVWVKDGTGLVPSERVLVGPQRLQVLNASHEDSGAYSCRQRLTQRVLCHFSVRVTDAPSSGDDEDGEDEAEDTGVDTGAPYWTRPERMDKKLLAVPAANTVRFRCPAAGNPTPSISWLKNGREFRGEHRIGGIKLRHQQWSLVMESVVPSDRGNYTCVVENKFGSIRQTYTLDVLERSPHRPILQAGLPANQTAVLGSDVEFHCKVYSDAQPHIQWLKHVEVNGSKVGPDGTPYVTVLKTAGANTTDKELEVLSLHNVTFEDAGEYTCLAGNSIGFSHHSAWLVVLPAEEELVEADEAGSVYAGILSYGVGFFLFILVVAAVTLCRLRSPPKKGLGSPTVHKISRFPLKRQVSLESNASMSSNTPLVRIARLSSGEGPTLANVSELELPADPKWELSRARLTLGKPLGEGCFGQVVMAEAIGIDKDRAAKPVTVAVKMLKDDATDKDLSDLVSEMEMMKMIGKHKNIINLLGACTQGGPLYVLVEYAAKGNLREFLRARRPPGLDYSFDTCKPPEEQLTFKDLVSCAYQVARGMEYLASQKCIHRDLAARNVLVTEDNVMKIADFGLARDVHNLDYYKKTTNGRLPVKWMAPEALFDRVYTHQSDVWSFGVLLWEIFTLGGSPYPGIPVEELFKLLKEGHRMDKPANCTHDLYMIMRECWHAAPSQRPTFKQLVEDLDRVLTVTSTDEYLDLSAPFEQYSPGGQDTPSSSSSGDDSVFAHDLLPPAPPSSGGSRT

Sequence | phosphorylation enrichment
GLSDLYVKIHL [SYT2_Y309_P308L] | 0.804
EQSGSYIWVPA [DLG1_Y895] | 5.15
PIYEGYALPHA [ACTA1_Y171] | 0.995
LTVVIYVLIGR [EPHA3_Y561] | 1.26
NFDRIYIFHLR [MYOF_Y1137_V1136I_YF] | 0.791
SQQTFCRVSNM [ABCD1_Y181_Y181C_YF] | 0.615
ERCAQYKKDGA [ALDOA_Y138] | 0.484
FEPWVYSLSYE [PRKDC_Y647_F649L] | 0.893
DPTNTYARPAE [SGMS2_Y24] | 0.481
KDAGDYKCKAK [LRIT3_Y326] | 0.517
EKAEVYRSENE [RIOK2_Y348_G349R] | 0.724
EGTGHYLCNAC [GATA5_Y208_D203E] | 0.566
DSILVYQRKEQ [USH2A_Y1909_G1911R] | 0.579
LIHTKCPQLLP [AHCY_Y143_Y143C] | 0.631
LNEAVYTKMMT [G6PD_Y401_P396L] | 1.29
KKARAYRPGIE [FLNA_Y287_G288R] | 0.357
KRISCYEARYQ [PFKFB3_Y194_S197R] | 0.523

Sequence | phosphorylation enrichment
ADARMYGVLPW [PLP1_Y207] | 0.545
RMSQRYGDVLQ [CYP1A2_Y72] | 0.769
LIFTNYEVGKD [GSTP1_Y112_A114V_YF] | 1.46
RQSTLYSFFPK [MSH6_Y8] | 5.16
LADKPYTFEDF [FXN_Y118_YF] | 2
NGRQCYSCRGN [PLAUR_Y217_K220R] | 0.31
HEEKVYLSRGD [CRACR2A_Y141] | 1.17
PPTFRYERGSR [INPPL1_Y663_YF] | 0.69
TDTQLYGRFGS [ITGA2B_Y384_G380D] | 0.464
YRNKPYISWPS [CDC42BPB_Y1638_S1633Y] | 0.46
LERYIYNREEF [HLA-DPB1_Y59] | 1.18
LFNQDYPIHSV [GATM_Y227_YF] | 2
RAADYYSQQMA [GBP6_Y334] | 0.875
QRIFQYIQSRF [DYRK1B_Y273_YF] | 0.619
SVTCTYSPTLN [TP53_Y126_A129T] | 0.912
EWQQIYTYDSG [JUP_Y20_T19I] | 5.58
